Measured values published in patent publication EP2649983A1 (Lipotec, S.A., dated 2013).

Molecular target: SNARE complex in cells of a human neuroblastoma cell line (human, UniProt P60880 1-206)
Test: cell-based or functional assay

SNARE complex in cells of a human neuroblastoma cell line, sequence (P60880 whole entry, one chain of several): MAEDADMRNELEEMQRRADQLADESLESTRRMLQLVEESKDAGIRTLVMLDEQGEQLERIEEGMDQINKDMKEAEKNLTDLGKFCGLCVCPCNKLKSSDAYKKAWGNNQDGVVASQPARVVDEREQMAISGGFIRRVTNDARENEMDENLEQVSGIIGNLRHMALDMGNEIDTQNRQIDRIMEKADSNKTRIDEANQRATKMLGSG

Binder	% RELEASED NO… (Average), dose 1 µM	% RELEASED NO… (Average), dose 10 µM	% RELEASED NO… (Average), dose 100 µM	% RELEASED NO… (Average), dose 500 µM	% RELEASED NO… (Average), dose 1000 µM
Ac-EHLKQWM-NH2 [Ac-SEQ ID NO:1-NH2]	96.1%	93.1%	79.6%	49.1%	42.5%
Ac-EDLKRWM-NH2 [Ac-SEQ ID NO:14-NH2]		85%	86%		45.8%

Next, values leading:

% RELEASED NO… (Average), dose 1 µM	% RELEASED NO… (Average), dose 10 µM	% RELEASED NO… (Average), dose 100 µM	% RELEASED NO… (Average), dose 500 µM	% RELEASED NO… (Average), dose 1000 µM	Binder
90.6%	97.1%	89%	78.1%	67.9%	Ac-DHFQQRM-NH2 [Ac-SEQ ID NO:24-NH2]
99.6%	94.5%	74.8%	48.1%	41%	Ac-DHFLDWM-NH2 [Ac-SEQ ID NO:25-NH2]
